# According to article PMC5952411 (EBioMedicine, 2018):
# T1: M. tuberculosis PafA (Pup ligase), wild type (M. tuberculosis H37Rv, UniProt P9WNU7 1-452)
# T1 sequence: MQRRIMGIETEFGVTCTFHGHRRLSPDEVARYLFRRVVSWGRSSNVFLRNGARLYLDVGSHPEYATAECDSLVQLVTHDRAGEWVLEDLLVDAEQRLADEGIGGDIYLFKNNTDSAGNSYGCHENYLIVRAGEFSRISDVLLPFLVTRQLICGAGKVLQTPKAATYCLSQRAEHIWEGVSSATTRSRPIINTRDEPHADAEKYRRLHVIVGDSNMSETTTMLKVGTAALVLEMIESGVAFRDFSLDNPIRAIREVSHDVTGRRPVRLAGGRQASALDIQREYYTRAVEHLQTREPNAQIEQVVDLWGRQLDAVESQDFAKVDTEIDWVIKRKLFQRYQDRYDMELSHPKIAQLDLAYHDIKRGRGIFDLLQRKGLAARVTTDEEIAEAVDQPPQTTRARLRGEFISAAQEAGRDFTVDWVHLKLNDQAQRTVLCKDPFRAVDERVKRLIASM
# T2: M. tuberculosis PafA S119A (M. tuberculosis H37Rv, UniProt P9WNU7 1-452, S119A)
# T2 sequence: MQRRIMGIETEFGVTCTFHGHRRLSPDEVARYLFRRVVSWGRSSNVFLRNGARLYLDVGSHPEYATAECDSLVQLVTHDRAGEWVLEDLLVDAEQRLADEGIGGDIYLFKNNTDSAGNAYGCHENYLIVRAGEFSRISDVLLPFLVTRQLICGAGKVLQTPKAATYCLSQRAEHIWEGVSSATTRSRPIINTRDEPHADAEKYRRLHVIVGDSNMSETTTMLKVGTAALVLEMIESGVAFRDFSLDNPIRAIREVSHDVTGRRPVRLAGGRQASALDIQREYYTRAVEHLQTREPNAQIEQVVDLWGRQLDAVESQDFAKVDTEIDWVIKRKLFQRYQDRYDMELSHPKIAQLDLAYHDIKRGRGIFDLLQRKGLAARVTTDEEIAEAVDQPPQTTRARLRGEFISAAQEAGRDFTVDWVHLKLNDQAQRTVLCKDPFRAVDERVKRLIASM
# B1: Pup^E (prokaryotic ubiquitin-like protein Pup with its C-terminal glutamine converted to glutamate), biotinylated (natural protein)
# chain: MAQEQTKRGGGGGDDDDIAGSTAAGQERREKLTEETDDLLDEIDDVLEENAEDFVRAYVQKGGE
# modifications: biotinylated with EZLink Sulfo-NHS-LC-Biotin (sites not given)
# What was measured:
# Assay in all cases: BLI
# [1] = target: Pup^E (prokaryotic ubiquitin-like protein Pup with its C-terminal glutamine converted to glutamate), biotinylated (M. tuberculosis) (UniProt P9WHN5)
# [2] = target: T1, M. tuberculosis PafA (Pup ligase), wild …
# [3] = target: T2, M. tuberculosis PafA S119A
Molecule,fold KD against WT PafA [1],binding result [2],binding result [3]
M. tuberculosis PafA pre-incubated with AEBSF (AEBSF covalently bound at S119) (from UniProt P9WNU7 1-452) (enzyme),2 fold,–,–
B1,–,binds,binds
